Experimental data from the supplement of paper PMC10126150.
± gives the standard deviation of the averaged measurements.

Test system: ATP
Experiment: switch fluorescence ratio, 500 uM ATP over buffer (Cy3 cluster intensity, sum of 5 cycles each) (fold (ratio)); higher = stronger signal-on switching upon ATP binding; sequences stand for … in TCGTCGGCAGCGTCAGATGTGTATAAGAGACAGTTTTTTTTTTTTTTTTTTTTTTTTT…TC
Conditions: aptamer strand: ATP DNA aptamer (quencher-CACCTGGGGGAGTATTGCGGAGGAAGG + anchor), 100 nM annealed; ATP concentration: 500 uM
Procedure, shortened: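 Imaging in selection buffer was followed by imaging after 15 min with 500 uM ATP at 22 °C, for Cy3-labelled switching-strand clusters annealed to 100 nM quencher-labelled ATP aptamer on a modified Illumina MiSeq flow-cell. Five of these buffer/ATP cycles ran, separated by NaOH stripping and re-annealing. The fluorescence ratio per cluster is summed target-cycle over summed buffer-cycle Cy3 intensity, averaged per switch-domain sequence; clusters outside 100-1000 RFU were removed.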
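Note: ATP exposure 15 min at 22 °C before imaging.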

Sequence | switch fluorescence ratio
TTTTTATTTA | 0.991 ± 0.025
TTTTTCAAAT | 1.04 ± 0.076
TTTTTCACG | 1 ± 0.04
TTTTTCCACG | 1.03 ± 0.018
TTTTTCCCCA | 1.05 ± 0.042
TTTTTCCCTT | 1.01 ± 0.034
TTTTTCGAAG | 0.9894 ± 0.0098
TTTTTCGGAT | 1.05 ± 0.14
TTTTTCGGGC | 1.08 ± 0.24
TTTTTCGGGT | 0.974 ± 0.018
TTTTTCTACA | 1.11 ± 0.12
TTTTTCTCGA | 0.991 ± 0.034
TTTTTCTGTT | 0.984 ± 0.039
TTTTTGAAAA | 1.018 ± 0.0055
TTTTTGACTT | 1.005 ± 0.0092
TTTTTGAGTG | 0.976 ± 0.02
TTTTTGATCG | 0.997 ± 0.039
TTTTTGATCT | 0.998 ± 0.016
TTTTTGCACC | 1.04 ± 0.037
TTTTTGCATA | 1.25 ± 0.26
TTTTTGCTCG | 1 ± 0.03

Sequence | switch fluorescence ratio
TTTTTGGAGT | 1.05 ± 0.07
TTTTTGGCAC | 0.982 ± 0.029
TTTTTGGCTC | 1.01 ± 0.019
TTTTTGGGAC | 1.03 ± 0.045
TTTTTGGGCA | 0.99 ± 0.013
TTTTTGGGCG | 1.01 ± 0.022
TTTTTGGGTC | 1.03 ± 0.12
TTTTTGGTAA | 1.01 ± 0.021
TTTTTGGTAC | 1.05 ± 0.076
TTTTTGTAAC | 1.01 ± 0.022
TTTTTGTAGT | 1.01 ± 0.032
TTTTTGTCCC | 1.04 ± 0.054
TTTTTGTCCG | 1.02 ± 0.042
TTTTTGTCTG | 0.9814 ± 0.0091
TTTTTGTGCA | 1.01 ± 0.011
TTTTTGTTCG | 0.998 ± 0.015
TTTTTTAATA | 1 ± 0.036
TTTTTTACAG | 1.02 ± 0.011
TTTTTTACCA | 1.01 ± 0.036
TTTTTTACCG | 1.02 ± 0.04
TTTTTTACGT | 1.043 ± 0.0092

Sequence | switch fluorescence ratio
TTTTTTACTT | 1.03 ± 0.054
TTTTTTAGAG | 1.004 ± 0.0068
TTTTTTAGTG | 0.981 ± 0.026
TTTTTTATGG | 1.01 ± 0.031
TTTTTTCCAC | 1.01 ± 0.028
TTTTTTCTCT | 0.994 ± 0.02
TTTTTTGCTT | 0.989 ± 0.038
TTTTTTGT | 0.982 ± 0.021
TTTTTTGTCC | 1.01 ± 0.018
TTTTTTTAGT | 0.996 ± 0.022
TTTTTTTATC | 1.01 ± 0.027
TTTTTTTCAC | 0.953 ± 0.058
TTTTTTTCCC | 1.01 ± 0.018
TTTTTTTCGC | 1.01 ± 0.032
TTTTTTTCTA | 0.99 ± 0.014
TTTTTTTG | 0.997 ± 0.026
TTTTTTTGCC | 1 ± 0.058
TTTTTTTTAG | 1.07 ± 0.27
TTTTTTTTGG | 0.998 ± 0.032
TTTTTTTTTG | 0.987 ± 0.025
